Data from patent publication US20260209386A1 (MYTHIC THERAPEUTICS, published 2026).

T1: Human PTK7 (human, UniProt Q13308 31-1070)
T1 sequence: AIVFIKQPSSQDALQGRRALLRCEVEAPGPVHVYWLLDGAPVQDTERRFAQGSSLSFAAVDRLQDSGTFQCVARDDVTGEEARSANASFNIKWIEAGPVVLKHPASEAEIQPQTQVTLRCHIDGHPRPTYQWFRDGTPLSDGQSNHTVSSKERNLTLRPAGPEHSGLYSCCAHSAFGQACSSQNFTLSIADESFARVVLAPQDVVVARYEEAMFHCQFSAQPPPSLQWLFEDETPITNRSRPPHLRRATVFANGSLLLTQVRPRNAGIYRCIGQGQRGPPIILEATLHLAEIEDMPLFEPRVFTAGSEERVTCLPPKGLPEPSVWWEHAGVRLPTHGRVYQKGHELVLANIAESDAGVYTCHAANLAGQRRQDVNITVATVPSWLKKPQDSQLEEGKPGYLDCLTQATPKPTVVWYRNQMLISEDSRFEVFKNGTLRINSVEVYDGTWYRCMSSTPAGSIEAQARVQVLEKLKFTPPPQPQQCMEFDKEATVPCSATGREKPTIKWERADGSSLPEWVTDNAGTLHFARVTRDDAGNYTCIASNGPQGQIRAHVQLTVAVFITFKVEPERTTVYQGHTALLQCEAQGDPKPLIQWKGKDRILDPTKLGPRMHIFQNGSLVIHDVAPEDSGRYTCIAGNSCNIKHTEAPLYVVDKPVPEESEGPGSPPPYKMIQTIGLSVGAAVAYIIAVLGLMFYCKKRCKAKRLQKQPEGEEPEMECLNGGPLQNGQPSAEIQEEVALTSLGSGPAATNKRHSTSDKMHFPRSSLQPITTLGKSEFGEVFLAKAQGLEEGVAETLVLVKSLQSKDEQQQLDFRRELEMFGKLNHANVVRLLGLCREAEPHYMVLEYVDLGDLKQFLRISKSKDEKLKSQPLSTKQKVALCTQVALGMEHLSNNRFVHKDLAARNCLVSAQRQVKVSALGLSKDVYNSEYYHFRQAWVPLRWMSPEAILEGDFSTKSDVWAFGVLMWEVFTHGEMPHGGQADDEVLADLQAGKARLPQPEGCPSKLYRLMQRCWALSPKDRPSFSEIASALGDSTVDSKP


Target: T1, Human PTK7
Assay: cell-based or functional assay

| Binder | Internalization, FOW @ 25 nM (fold over the wildtype, parental antibody) |
| --- | --- |
| MYT11264 (antibody, V domains shown) VH: EVQLVESGGGLVQPGGSLRLSCTASGIDLSRYSMGWVRQAPGKGLEWVGHISYGGSTYYASWAKGRFTISRDTSKNTVYLQMNSLRAEDTAVYFCARVGYPGYSGYGYAFDAFDPWGQGTLVTVSS VL: EIVMTQSPSTLSASVGDRVIITCQSSKSVYNDNWLSWYQQKPGKAPKLLIYGASTLASGVPSRFSGSGSGAEFTLTISSLQPDDFATYYCAGGYSSSSDNGFGQGTKLTVL | 1.13 fold over parental antibody |
| MYT11282 (antibody, V domains shown) VH: EVQLVESGGGLVQPGGSLRLSCTASGIDLSRYSMGWVRQAPGKGLEWVGIISYGGSTYYASWAKGRFTISRDTSKNTVYLQMNSLRAEDTAVYFCARHGYPGYSGYGYAFDAFDPWGQGTLVTVSS VL: EIVMTQSPSTLSASVGDRVIITCQSSKSVYNDNWLSWYQQKPGKAPKLLIYGASTLASGVPSRFSGSGSGAEFTLTISSLQPDDFATYYCAGGYSSSSDNGFGQGTKLTVL | 1.68 fold over parental antibody |
| MYT11287 (antibody, V domains shown) VH: EVQLVESGGGLVQPGGSLRLSCTASGIDLSRYSMGWVRQAPGKGLEWVGIISYGGSTYYASWAKGRFTISRDTSKNTVYLQMNSLRAEDTAVYFCARVGYPGHSGYGYAFDAFDPWGQGTLVTVSS VL: EIVMTQSPSTLSASVGDRVIITCQSSKSVYNDNWLSWYQQKPGKAPKLLIYGASTLASGVPSRFSGSGSGAEFTLTISSLQPDDFATYYCAGGYSSSSDNGFGQGTKLTVL | 1.71 fold over parental antibody |
| MYT11280 (antibody, V domains shown) VH: EVQLVESGGGLVQPGGSLRLSCTASGIDLSRYSMGWVRQAPGKGLEWVGIISYGGSTYYASWAKGRFTISRDTSKNTVYLQMNSLRAEDTAVYFCHRVGYPGYSGYGYAFDAFDPWGQGTLVTVSS VL: EIVMTQSPSTLSASVGDRVIITCQSSKSVYNDNWLSWYQQKPGKAPKLLIYGASTLASGVPSRFSGSGSGAEFTLTISSLQPDDFATYYCAGGYSSSSDNGFGQGTKLTVL | 1.16 fold over parental antibody |
| MYT11271 (antibody, V domains shown) VH: EVQLVESGGGLVQPGGSLRLSCTASGIDLSRYSMGWVRQAPGKGLEWVGIISYGGSHYYASWAKGRFTISRDTSKNTVYLQMNSLRAEDTAVYFCARVGYPGYSGYGYAFDAFDPWGQGTLVTVSS VL: EIVMTQSPSTLSASVGDRVIITCQSSKSVYNDNWLSWYQQKPGKAPKLLIYGASTLASGVPSRFSGSGSGAEFTLTISSLQPDDFATYYCAGGYSSSSDNGFGQGTKLTVL | 1.57 fold over parental antibody |
| MYT11281 (antibody, V domains shown) VH: EVQLVESGGGLVQPGGSLRLSCTASGIDLSRYSMGWVRQAPGKGLEWVGIISYGGSTYYASWAKGRFTISRDTSKNTVYLQMNSLRAEDTAVYFCAHVGYPGYSGYGYAFDAFDPWGQGTLVTVSS VL: EIVMTQSPSTLSASVGDRVIITCQSSKSVYNDNWLSWYQQKPGKAPKLLIYGASTLASGVPSRFSGSGSGAEFTLTISSLQPDDFATYYCAGGYSSSSDNGFGQGTKLTVL | 1.11 fold over parental antibody |
| MYT11291 (antibody, V domains shown) VH: EVQLVESGGGLVQPGGSLRLSCTASGIDLSRYSMGWVRQAPGKGLEWVGIISYGGSTYYASWAKGRFTISRDTSKNTVYLQMNSLRAEDTAVYFCARVGYPGYSGYHYAFDAFDPWGQGTLVTVSS VL: EIVMTQSPSTLSASVGDRVIITCQSSKSVYNDNWLSWYQQKPGKAPKLLIYGASTLASGVPSRFSGSGSGAEFTLTISSLQPDDFATYYCAGGYSSSSDNGFGQGTKLTVL | 1.53 fold over parental antibody |
| MYT11284 (antibody, V domains shown) VH: EVQLVESGGGLVQPGGSLRLSCTASGIDLSRYSMGWVRQAPGKGLEWVGIISYGGSTYYASWAKGRFTISRDTSKNTVYLQMNSLRAEDTAVYFCARVGHPGYSGYGYAFDAFDPWGQGTLVTVSS VL: EIVMTQSPSTLSASVGDRVIITCQSSKSVYNDNWLSWYQQKPGKAPKLLIYGASTLASGVPSRFSGSGSGAEFTLTISSLQPDDFATYYCAGGYSSSSDNGFGQGTKLTVL | 1.51 fold over parental antibody |

Now from value to binder:

| Internalization, FOW @ 25 nM (fold over the wildtype, parental antibody) | Binder |
| --- | --- |
| 1.51 fold over parental antibody | MYT11315 (antibody, V domains shown) VH: EVQLVESGGGLVQPGGSLRLSCTASGIDLSRYSMGWVRQAPGKGLEWVGIISYGGSTYYASWAKGRFTISRDTSKNTVYLQMNSLRAEDTAVYFCARVGYPGYSGYGYAFDAFDPWGQGTLVTVSS VL: EIVMTQSPSTLSASVGDRVIITCQSSKSVYNDNWHSWYQQKPGKAPKLLIYGASTLASGVPSRFSGSGSGAEFTLTISSLQPDDFATYYCAGGYSSSSDNGFGQGTKLTVL |
| 1.82 fold over parental antibody | MYT11307 (antibody, V domains shown) VH: EVQLVESGGGLVQPGGSLRLSCTASGIDLSRYSMGWVRQAPGKGLEWVGIISYGGSTYYASWAKGRFTISRDTSKNTVYLQMNSLRAEDTAVYFCARVGYPGYSGYGYAFDAFDPWGQGTLVTVSS VL: EIVMTQSPSTLSASVGDRVIITCQSSHSVYNDNWLSWYQQKPGKAPKLLIYGASTLASGVPSRFSGSGSGAEFTLTISSLQPDDFATYYCAGGYSSSSDNGFGQGTKLTVL |
| 1.51 fold over parental antibody | MYT11297 (antibody, V domains shown) VH: EVQLVESGGGLVQPGGSLRLSCTASGIDLSRYSMGWVRQAPGKGLEWVGIISYGGSTYYASWAKGRFTISRDTSKNTVYLQMNSLRAEDTAVYFCARVGYPGYSGYGYAFDAHDPWGQGTLVTVSS VL: EIVMTQSPSTLSASVGDRVIITCQSSKSVYNDNWLSWYQQKPGKAPKLLIYGASTLASGVPSRFSGSGSGAEFTLTISSLQPDDFATYYCAGGYSSSSDNGFGQGTKLTVL |
| 1.64 fold over parental antibody | MYT11310 (antibody, V domains shown) VH: EVQLVESGGGLVQPGGSLRLSCTASGIDLSRYSMGWVRQAPGKGLEWVGIISYGGSTYYASWAKGRFTISRDTSKNTVYLQMNSLRAEDTAVYFCARVGYPGYSGYGYAFDAFDPWGQGTLVTVSS VL: EIVMTQSPSTLSASVGDRVIITCQSSKSVHNDNWLSWYQQKPGKAPKLLIYGASTLASGVPSRFSGSGSGAEFTLTISSLQPDDFATYYCAGGYSSSSDNGFGQGTKLTVL |
| 1.65 fold over parental antibody | MYT11293 (antibody, V domains shown) VH: EVQLVESGGGLVQPGGSLRLSCTASGIDLSRYSMGWVRQAPGKGLEWVGIISYGGSTYYASWAKGRFTISRDTSKNTVYLQMNSLRAEDTAVYFCARVGYPGYSGYGYHFDAFDPWGQGTLVTVSS VL: EIVMTQSPSTLSASVGDRVIITCQSSKSVYNDNWLSWYQQKPGKAPKLLIYGASTLASGVPSRFSGSGSGAEFTLTISSLQPDDFATYYCAGGYSSSSDNGFGQGTKLTVL |
| 1.59 fold over parental antibody | MYT11292 (antibody, V domains shown) VH: EVQLVESGGGLVQPGGSLRLSCTASGIDLSRYSMGWVRQAPGKGLEWVGIISYGGSTYYASWAKGRFTISRDTSKNTVYLQMNSLRAEDTAVYFCARVGYPGYSGYGHAFDAFDPWGQGTLVTVSS VL: EIVMTQSPSTLSASVGDRVIITCQSSKSVYNDNWLSWYQQKPGKAPKLLIYGASTLASGVPSRFSGSGSGAEFTLTISSLQPDDFATYYCAGGYSSSSDNGFGQGTKLTVL |
| 1.37 fold over parental antibody | MYT11305 (antibody, V domains shown) VH: EVQLVESGGGLVQPGGSLRLSCTASGIDLSRYSMGWVRQAPGKGLEWVGIISYGGSTYYASWAKGRFTISRDTSKNTVYLQMNSLRAEDTAVYFCARVGYPGYSGYGYAFDAFDPWGQGTLVTVSS VL: EIVMTQSPSTLSASVGDRVIITCQHSKSVYNDNWLSWYQQKPGKAPKLLIYGASTLASGVPSRFSGSGSGAEFTLTISSLQPDDFATYYCAGGYSSSSDNGFGQGTKLTVL |
| 1.66 fold over parental antibody | MYT11294 (antibody, V domains shown) VH: EVQLVESGGGLVQPGGSLRLSCTASGIDLSRYSMGWVRQAPGKGLEWVGIISYGGSTYYASWAKGRFTISRDTSKNTVYLQMNSLRAEDTAVYFCARVGYPGYSGYGYAHDAFDPWGQGTLVTVSS VL: EIVMTQSPSTLSASVGDRVIITCQSSKSVYNDNWLSWYQQKPGKAPKLLIYGASTLASGVPSRFSGSGSGAEFTLTISSLQPDDFATYYCAGGYSSSSDNGFGQGTKLTVL |
| 1.51 fold over parental antibody | MYT11303 (antibody, V domains shown) VH: EVQLVESGGGLVQPGGSLRLSCTASGIDLSRYSMGWVRQAPGKGLEWVGIISYGGSTYYASWAKGRFTISRDTSKNTVYLQMNSLRAEDTAVYFCARVGYPGYSGYGYAFDAFAPWGQGTLVTVSS VL: EIVMTQSPSTLSASVGDRVIITCQSSKSVYNDNWLSWYQQKPGKAPKLLIYGASTLASGVPSRFSGSGSGAEFTLTISSLQPDDFATYYCAGGYSSSSDNGFGQGTKLTVL |
